B1: Ehg1-Cub-LV [S. cerevisiae] / NubG-Hip1 [S. cerevisiae] (parent)
chain 1: MRSFVTNNDIPVGYVTPKFPSLYWPINNSKYNTAFLYYISDIWKFSLYWTLIFNGAFYVTAGVYASLTHRKKAGSVWIFVMYVLYGGVQGLTTGTVMGFLIGAIYRSGLFSMSTWVPLCCAVVQILFDVVLSYSMVGSVM
chain 2: MPRNPLKKEYWADVVDGFKPATSPAFENEKESTTFVTELTSKTDSAFPLSSKDSPGINQTTNDITSSDRFRRNEDTEQEDINNTNLSKDLSVRHLLTLAVGGAIGTGLYVNTGAALSTGGPASLVIDWVIISTCLFTVINSLGELSAAFPVVGGFNVYSMRFIEPSFAFAVNLNYLAQWLVLLPLELVAASITIKYWNDKINSDAWVAIFYATIALANMLDVKSFGETEFVLSMIKILSIIGFTILGIVLSCGGGPHGGYIGGKYWHDPGAFVGHSSGTQFKGLCSVFVTAAFSYSGIEMTAVSAAESKNPRETIPKAAKRTFWLITASYVTILTLIGCLVPSNDPRLLNGSSSVDAASSPLVIAIENGGIKGLPSLMNAIILIAVVSVANSAVYACSRCMVAMAHIGNLPKFLNRVDKRGRPMNAILLTLFFGLLSFVAASDKQAEVFTWLSALSGLSTIFCWMAINLSHIRFRQAMKVQERSLDELPFISQTGVKGSWYGFIVLFLVLIASFWTSLFPLGGSGASAESFFEGYLSFPILIVCYVGHKLYTRNWTLMVKLEDMDLDTGRKQVDLTLRREEMRIERETLAKRSFVTRFLHFWC
B2: Ehg1-Cub-LV [S. cerevisiae] / NubG-Fur4 [S. cerevisiae] (parent)
chain 1: B1 chain 1
chain 2: MPDNLSLHLSGSSKRLNSRQLMESSNETFAPNNVDLEKEYKSSQSNITTEVYEASSFEEKVSSEKPQYSSFWKKIYYEYVVVDKSILGVSILDSFMYNQDLKPVEKERRVWSWYNYCYFWLAECFNINTWQIAATGLQLGLNWWQCWITIWIGYGFVGAFVVLASRVGSAYHLSFPISSRASFGIFFSLWPVINRVVMAIVWYSVQAYIAATPVSLMLKSIFGKDLQDKIPDHFGSPNATTYEFMCFFIFWAASLPFLLVPPHKIRHLFTVKAVLVPFASFGFLIWAIRRAHGRIALGSLTDVQPHGSAFSWAFLRSLMGCMANFSTMVINAPDFSRFSKNPNSALWSQLVCIPFLFSITCLIGILVTAAGYEIYGINYWSPLDVLEKFLQTTYNKGTRAGVFLISFVFAVAQLGTNISANSLSCGTDMSAIFPKFINIKRGSLFCAAMALCICPWNLMATSSKFTMALSAYAIFLSSIAGVVCSDYFVVRRGYIKLTHIYSHQKGSFYMYGNRFGINWRALAAYLCGVAPCLPGFIAEVGAPAIKVSDGAMKLYYLSYWVGYGLSFSSYTALCYFFPVPGCPVNNIIKDKGWFQRWANVDDFEEEWKDTIERDDLVDDNISVYEHEHEKTFI
B3: Ehg1-Cub-LV [S. cerevisiae] / NubG-Bap2 [S. cerevisiae] (parent)
chain 1: B1 chain 1
chain 2: MLSSEDFGSSGKKETSPDSISIRSFSAGNNFQSSSSEKTYSKQKSGSDKLIHRFADSFKRAEGSTTRTKQINENTSDLEDGVESITSDSKLKKSMKSRHVVMMSLGTGIGTGLLVANAKGLHYGGPAALIIGYILVSFVTYFMIQAAGEMAVTYPTLPANFNAYSSIFISKSFGFATVWLYCFQWLTVLPLELITASMTIQFWNDKINPDIYILIFYVFLVFIHFFGVKAYGETEFIFNCCKILMIAGFIILSIVINCGGAGNDGYIGATYWHNPGAFAGDTSIGRFKNVCYILVTAYFSFGGMELFALSVQEQSNPRKSTPVAAKRSIYRIVVIYLLTMILIGFNVPYNDDQLMGAGGSATHASPYVLAASIHGVKIVPHIINAVILISVVSVANSSLYAGPRLICSLAQQGYAPKFLDYVDREGRPLRALIVCCVFGVIAFVAASSKEEIVFTWLAAIAGLSELFTWTSIMLSHLRFRQAMKVQGRSLDELGYKATTGIWGSIYGVFFNILVFVAQFWVALAPLGNGGKCDAESFFQNYLAFPIWLAFYFGYMVYNRDFTLLNPLDKIDLDFHRRIYDPELMRQEDEENKEKLRNMSLMRKAYHFWC

The variants in one test derive from B1. Kind of test: split-ubiquitin yeast two-hybrid (growth of strain NMY51). Conditions: with NubG-Hip1 [S. cerevisiae]; sub-panel Ehg1–Hip1; SC–His medium; 24 h starting at OD600 0.1; NubG-vector control est. 0.48; parent: 1.8; read off a plot.
For the variant chain 1 MRSFVTNNDIPVGYVTPKAPSLYWPINNSKYNTAFLYYISDIWKFSLYWTLIFNGAFYVTAGVYASLTHRKKAGSVWIFVMYVLYGGVQGLTTGTVMGFLIGAIYRSGLFSMSTWVPLCCAVVQILFDVVLSYSMVGSVM [chain 1 F19A], the response amounted to 1.5 OD600.

In the case of chain 1 MRSFVTNNDIPVGYVTAKFASLYWPINNSKYNTAFLYYISDIWKFSLYWTLIFNGAFYVTAGVYASLTHRKKAGSVWIFVMYVLYGGVQGLTTGTVMGFLIGAIYRSGLFSMSTWVPLCCAVVQILFDVVLSYSMVGSVM [chain 1 P17A P20A], the response came to 1.3 OD600.

Still in this test, the particulars now being: with NubG-Hip1 [S. cerevisiae]; sub-panel Ehg1–Hip1; SC–His–Ade medium; 24 h starting at OD600 0.1; NubG-vector control est. 0.20; parent: 0.73; read off a plot.
chain 1 MRSFVTNNDIPVGYVTPKAPSLYWPINNSKYNTAFLYYISDIWKFSLYWTLIFNGAFYVTAGVYASLTHRKKAGSVWIFVMYVLYGGVQGLTTGTVMGFLIGAIYRSGLFSMSTWVPLCCAVVQILFDVVLSYSMVGSVM [chain 1 F19A]: the response came to 0.75 OD600.

With chain 1 MRSFVTNNDIPVGYVTAKFASLYWPINNSKYNTAFLYYISDIWKFSLYWTLIFNGAFYVTAGVYASLTHRKKAGSVWIFVMYVLYGGVQGLTTGTVMGFLIGAIYRSGLFSMSTWVPLCCAVVQILFDVVLSYSMVGSVM [chain 1 P17A P20A], the response stood at 0.5 OD600.

Variants of B2 are the subject of the next test. The test is described as above. Conditions: with NubG-Fur4 [S. cerevisiae]; sub-panel Ehg1–Fur4; SC–His medium; 24 h starting at OD600 0.1; NubG-vector control est. 0.40; parent: 1.8; read off a plot.
chain 1 MRSFVTNNDIPVGYVTPKAPSLYWPINNSKYNTAFLYYISDIWKFSLYWTLIFNGAFYVTAGVYASLTHRKKAGSVWIFVMYVLYGGVQGLTTGTVMGFLIGAIYRSGLFSMSTWVPLCCAVVQILFDVVLSYSMVGSVM [chain 1 F19A]: the response came to 0.65 OD600.

Take chain 1 MRSFVTNNDIPVGYVTAKFASLYWPINNSKYNTAFLYYISDIWKFSLYWTLIFNGAFYVTAGVYASLTHRKKAGSVWIFVMYVLYGGVQGLTTGTVMGFLIGAIYRSGLFSMSTWVPLCCAVVQILFDVVLSYSMVGSVM [chain 1 P17A P20A]: the response was 0.45 OD600.

The test is the same for the next values; noted with them: with NubG-Fur4 [S. cerevisiae]; sub-panel Ehg1–Fur4; SC–His–Ade medium; 24 h starting at OD600 0.1; NubG-vector control est. 0.16; parent: 0.95; read off a plot.
chain 1 MRSFVTNNDIPVGYVTPKAPSLYWPINNSKYNTAFLYYISDIWKFSLYWTLIFNGAFYVTAGVYASLTHRKKAGSVWIFVMYVLYGGVQGLTTGTVMGFLIGAIYRSGLFSMSTWVPLCCAVVQILFDVVLSYSMVGSVM [chain 1 F19A]: the response worked out at 0.22 OD600.

chain 1 MRSFVTNNDIPVGYVTAKFASLYWPINNSKYNTAFLYYISDIWKFSLYWTLIFNGAFYVTAGVYASLTHRKKAGSVWIFVMYVLYGGVQGLTTGTVMGFLIGAIYRSGLFSMSTWVPLCCAVVQILFDVVLSYSMVGSVM [chain 1 P17A P20A]: the response was determined as 0.17 OD600.

The variants in another test derive from B3. The description is as above. Conditions: with NubG-Bap2 [S. cerevisiae]; sub-panel Ehg1–Bap2; SC–His medium; 24 h starting at OD600 0.1; NubG-vector control est. 0.46; parent: 1.3; read off a plot.
Take chain 1 MRSFVTNNDIPVGYVTPKAPSLYWPINNSKYNTAFLYYISDIWKFSLYWTLIFNGAFYVTAGVYASLTHRKKAGSVWIFVMYVLYGGVQGLTTGTVMGFLIGAIYRSGLFSMSTWVPLCCAVVQILFDVVLSYSMVGSVM [chain 1 F19A]: the response worked out at 0.72 OD600.

chain 1 MRSFVTNNDIPVGYVTAKFASLYWPINNSKYNTAFLYYISDIWKFSLYWTLIFNGAFYVTAGVYASLTHRKKAGSVWIFVMYVLYGGVQGLTTGTVMGFLIGAIYRSGLFSMSTWVPLCCAVVQILFDVVLSYSMVGSVM [chain 1 P17A P20A]: the response was determined as 0.5 OD600.

Still in this test, the particulars now being: with NubG-Bap2 [S. cerevisiae]; sub-panel Ehg1–Bap2; SC–His–Ade medium; 24 h starting at OD600 0.1; NubG-vector control est. 0.17; parent: 0.45; read off a plot.
On to chain 1 MRSFVTNNDIPVGYVTPKAPSLYWPINNSKYNTAFLYYISDIWKFSLYWTLIFNGAFYVTAGVYASLTHRKKAGSVWIFVMYVLYGGVQGLTTGTVMGFLIGAIYRSGLFSMSTWVPLCCAVVQILFDVVLSYSMVGSVM [chain 1 F19A], for which the response turned out to be 0.27 OD600.

Regarding chain 1 MRSFVTNNDIPVGYVTAKFASLYWPINNSKYNTAFLYYISDIWKFSLYWTLIFNGAFYVTAGVYASLTHRKKAGSVWIFVMYVLYGGVQGLTTGTVMGFLIGAIYRSGLFSMSTWVPLCCAVVQILFDVVLSYSMVGSVM [chain 1 P17A P20A], the response was found to be 0.17 OD600.

For the origin of these results see PMC6892922.
